Experimental data reported in a protein production outcome set (Wang et al. 2014).
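Also: failed if final PepcDB status was selected cloned or expressed and not failed if soluble or beyond.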

Assay: label from the status in PepcDB records
With “ANLYWFRADWFERPDLKKKFKDKYGYELGVPVNWSAYEDIAKFFSEDVKEIDGKKVFGHMDYGKKDPSLGWRFTDAWFSMAGSGDKGLPNGLPVDEWGIRVEDCHPVGSSITRGGDTNGPAAVFATQKYIDWLKAYAPPEAAGMTFSESGPVPSQGNVAQQIFWYTAFTADMTKPGLPVMNADGTPKWRMAPSPKGPYWKEGMKLGYQDVGSWTFLKSSDEKKRLAAWLYAQFVTSKSVSLKKTIVGLTPIRESDINS” the protein production was “failed”. In the case of “APIKGVTFGEDTVWEVQGYKNVRITFELDERVDKVLNEKCSVYTVESGTEVTEFACVVAEAVVKTLQPVSDLLTNMGIDLDEWSVATFYLFDDAGEENFSSRMYCSFYPPDE”, the protein production is reported as “not failed”. In the case of “APIPERAQVSVPGPVRVVDFDTPQSVALFVQPGIDRDDPDFFTAYILNHIIGGGGFESRLMQEVREKRGLTYGVYSYLLPKDLASIYMGSVASANDKIAEAVNVIRDVWRDVAANGVTAKELEDAKTYLTGAYPLRFDGNGRIANILAGMQIQGLPIDYIATRNDQVNAVTLEEINTFAAGFLDPEGLSFTVVGKPVGL”, the protein production is reported as “failed”. For “AQNEKNMYSYKKIGNKYIVSINNHTEIVKALNAFCKEKGILSGSINGIGAIGELTLRFFNPKTKAYDDKTFREQMEISNLTGNISSMNEQVYLHLHITVGRSDYSALAGHLLSAIQNGAGEFVVEDYSERISRTYNPDLGLNIYDFER”, the protein production was “not failed”. With “AQNFSDYFTNKTLRIDYLFTGNADKQSICLDELSELPVWAGRRHHLSELPLEGNGQIVMRDVASGKVIYTTSFSSLFQEWLETDEAKEVTKGFENTYLLPYPIKPAEVEITLRNNKREVSANLKHVVKPDDILIHKKGLTHITPHKYLLKSGNEEQCIDVAILAEGYTTSEMETFYKDAAIACEALFSHEPFQSMKNRFNIVAVASPSADSGVSAPKQGAWKHTAFGSHFDTFYSDRYLTTSRVKAINDALAGIPYEHIIILANTEQYGGGGIYNAFTLTTAHHPNFRPVVVHEFGHSFGGLADEYFYDEDVMNGLYPLNIEPWEQNITTRINFASKWEDMLTKTTPVPTPVADKAKYPIGVYEGGGYSAKGIYRPAFDCRMRTNEYPTFCPVCQRAIQRIIEFYTGK” the protein production was “not failed”. For “AQTPAQPQGKGIFQSVSEAIDAAHQAFLRYQQCPLKTRSAIISAMRQELTPLLATLAEESANETGMGNKEDKFLKNKAALDNTPGVEDLTTTALTGDGGMVLFEYSPFGVIGSVAPSTNPTETIINNSISMLAAGNSIYFSPHPGAKKVSLKLISLIEEIAFRCCGIRNLVVTVAEPTFEATQQMMAHPRIAVLAITGGPGIVAMGMKSGKKVIGAGNPPCIVDETADLVKAAEDIINGASFDYNLPCIAE”, the protein production was “failed”. With “ARHPDLVSCLTLLQAGDVAAFTVWKAARDPKGVLATPILGHVAMRRMAPKRMPAWYALSVGKADMISELCRCAERSFQHGAQWSLASAYQCYMDPAVELPRPHQPLLSIWGGADFSHPAGNEHSIRRLRPDAVCVTFDDLGHTPELEDPIRVFDAIVRFCEA” the protein production was “failed”. In the case of “ARRPMNAFLLFCKRHRSLVRQEHPRLDNRGATKILADWWAVLDPKEKQKYTDMAKEYKDAFMKANPGYR”, the protein production is reported as “not failed”. In the case of “ASATETNTAPSADTQAPKPVNTVTSDVDCSVSAAWGLYKFNQKSNFSAEFEMPESVKAGTGFDALIKIKDISVSNDNLSGYKNAKLTKSSIRINVGKNVKLDGNQPGLSLSNGVLSINDHLKASLEGNSLRISAAPITVRLQALTEGTLTFIPEKTILTNTASVDGYTANTTCTTNADKPFATVKVDPADGLTITAPESASIKQDVQITATVPEKLNEKMDGKVQFFVNHIAAGDPVPVTEDNKASTSIIFDTSGSKTITARFIDAEGYNPAPDGETIIPVVTELDTKKPEDTDSYTGLINGSATSLLKPAKVMPGEKVSVSASLLPNKAPIRVYEIGINAPEDVKYIDGTGKTNYSSKLATTGSVFSSPGSGYYDPEWKNESKKPNESYRGFHSDTSYSVVDTSPQTVSAEFEIPKTLAPGIYMFQMGVYKYSNSLKDLVSIPETAFEIAGPDLPALPERKIKPQPEETPEVSDGSSTAKLVKSP”, the protein production is reported as “not failed”. In the case of “ASIYKNKKSHEQLSALKGSFCRNQFPGQSEVEHLTKVTGLSTREVRKWFSDRRYHCRNLKGSR”, the protein production is reported as “not failed”. In the case of “ASVVLDFLTSDDFPAVAELGAAIWHKHFIGMISREQIDYMVSSRYTPQRLGRYLDAPDRWFRLLRVDGRPVGYCSYALTGQPGEMKLEQLYLLEEMRGWGLGGRMMDEAEAAARALGCATLMLTVNRHNAGAIAVYQKRGFAVREEVVADIGNGFVMDDYMMEKLLSR”, the protein production is reported as “failed”. With “ATEEFIIRIPPYHYIHVLDQNSNVSRVEVGPKTYIRQDNERVLFAPMRMVTVPPRHYCTVANPVSRDAQGLVLFDVTGQVRLRHADLEIRLAQDPFPLYPGEVLEKDITP” the protein production was “failed”. With “ATHTLQLAIGDEPTEGFDPMLGWSHGSYLLLHSPLLKQNEDFSWDSLLLSQYQPSDDGKTWLLTLKPDLKFSDGSPLTAKDVAFTYNNAAASGGKVDMGNFLSAEVIDPLNVRIHLKAPQSTFVNVLGSLGIVSADKYNAKTYAQKPIGAGPYRLVSFQPGQQMIVEANPYYAGNKNDFDKLIFVFLDEDSAFAAAQSGQLGVVRIPPSMAVGSVNNMKLWVRPSVENRGIVFPTTPAGKKDAHGYPIGNDVTADVAIRRAINYAINRQLLADQIMEGHAIPAYTGVQGLPWNNPDSAIKDGDIDKAKQILEQAGWQLNSQGTREKNGLPAKITLWYTSGDTTRRDLAQALRSMLKPIGIDVDLKSGSWETVERNMHANPTLFGWGSLDPMELYHHYSSNAAGVEYYNPGYYKNPMVDKHLQQALDAPTWQQAVPFWQQVDWDGTTGAGIRGDAAWAWLLNIQHTYLANNCVDLGKGTPEIHGSWSLLNSIDSWK” the protein production was “not failed”. For “AVSGLYSSSDDVIELTPSNFNREVIQSDGLWLVEFYAPWCGHCQRLTPEWKKAATALKDVVKVGAVNADKHQSLGGQYGVQGFPTIKIFGANKNKPEDYQGGRTGEAIVDAALSALR”, the protein production was “not failed”. In the case of “AYQPIRYRETGKVGELTFEFYNGAMSTEQCQRLVSALRWAKARDTQVLLVRGGRGAFSNGVHLNVIQAAEVPGLEAWANIQAIDDVCLELLTARQLVVSGLTGNAGAGGLMLALAADVVLARADTVYNPHYKSMGLYGSEYWTYSLPRAVGQAMAKQLTEACLPISALQALQMGMVQEIGPRC”, the protein production is reported as “failed”. With “CSGKEALDYFKEDPQMFDMYHTGYQQQMSNWPELPVNSIINWLLSNSSSLVVADFGCGDARIAKSVKNKVFSFDLVSKNPSVIACDMSNTSLESSSVDVAVFCLSLMGTNYSSYIKEAHRVLRPSGMLLIAEVKSRFDPNNGGADPKDFVKAVCDLGFTSVLKDFSNKMFILFHFKKK” the protein production was “failed”. In the case of “DDDIEQLLEFMHQLPAFANMTMSVRRELCSVMIFEVVEQAGAIILEDGQELDSWYVILNGTVEISHPDGKVENLFMGNSFGITPTLDKQYMHGIVRTKVDDCQFVCIAQQDYWRILNHVEK”, the protein production is reported as “not failed”. With “DDFETSLTELEPLEKDAYIVRLVFAGSTTTEPIVSSLSTAYDIKINILEANIKNTKNGTVGFLVLHIPYISSVDFGKFEKELIERQVKMEVLRHG” the protein production was “not failed”. For “DDSLGEAVTTRAEALTIPAVLRARNLLSTTVARTPLVCDGTLPPFVPVAAPPGAATMQTPFHRMLATADDLLFNGVACWALDRDESGTCIGAIHIPLDTWQIEENTVRVNGKAVDPMEVCIFVGIHGGLLTHASETFTDARNLVRAAARVAQNPAALIELRQTNNAQLSPDDVDRIINGYVAARRGRNSGVGFSSSGLEVHEHEMAKENLLIEGRNAAAVDVARAMNVPAAFIDATVGGTSLSYQNAASRMIELVTFGVEPLMSAIEARLNQPDMHADHLANPLKFDPAALLDAIPTTPTIG”, the protein production was “not failed”. In the case of “DDSSDPKTSKSATSSEASSAAEAAPAELPTAEELNAILAVATDPAAPVEQKVATVQGGETAPELFETMTASKQESGANFQ”, the protein production is reported as “failed”. With “DDVTLLTVPGWGNSGDTHWHGYWEKTYPLARRAEQRDWLYPTRDEWVAGLAAAVAEIPGKLVIAAHSLGCHTTVAWLLQATLLEQRKVKGALLVAPPAIPLTDERARASGELPEGAPLPTFAGFETLPERKLPVPALLVASRDDPFCEFEEARRMAELWGAEFVDGGMAGHMGSHAGLGSWPAGQRLLQRLI” the protein production was “failed”. In the case of “DEKGNIVDGDQIMYICSKHLKSEGRLKDDTVVSTVMSNLGFYKALEKEGIKSVQTAVGDRYVVEAMKKDGYNVGGEQSGHLIFLDYNTTGDGLLSAIMLMNTLKATGKPLSELAAEMQKF”, the protein production is reported as “failed”. In the case of “DEVENLYTQVADNEYLVQGRMLIDEFNEVFETDLHMSDVDTMAGYLITALGTIPDEGEKPSFEVGNIKLTAEEMEGTRLLVLRVHFYDEE”, the protein production is reported as “not failed”. In the case of “DGENYFIVDAHVALWDARRENQRNIHGKQFIDCFYDYHRNLSPASELWPYEDFLYQGGERLMKDLFTDGYVDHAIFQPAHLGAFYNTGFGQTEEAFALTRKHPGMLTYNHCFDPRFEEAGLKQLREDAARFGLKGVKLYTAEWKGDSRGYKLSDPWTYRYLDACRELGIKNIHVHKGPTIRPLDRDAFDVADVDAAASDFTDLNFVVEHCGLPRLEDFCWIATQEPNVHAGLAVAIPFMHTRPRYFAQIIGELLYWLDEDRIQFSSDYALWTPRWIVEQFVDFRIPDDMTGEYPQLTVAQKKKILGLNAAAMYDI”, the protein production is reported as “failed”. With “DIAARRHTGVIPTHHQFITNERFGDLLNIDDTAKRKSGSEMRPARAKFDFKAQTLKELPLQKGDIVYIYKQIDQNWYEGEHHGRVGIFPRTYIELLPPAEKAQPKKLTPVQVLEYGEAIAKFNFNGDTQVEMSFRKGERITLLRQVDENWYEGRIPGTSRQGIFPITYVDVIKRPLVKNPVDYMDLPF” the protein production was “failed”. In the case of “DIMGFVFNTRRTLFKDKRVRQALSILFDFEWVNHHLFNNIYTRTEGYWDGSILSSIGKPASEEEKALLAPYPDAVLPEVMDGSWRISKTDGSGMDRLNAQKAWKLLQEAGFTKKNNRLIAPNGLPFQFEIMTQSLEEEKVALAFQSNLSRLGIHAEIRTVDDSQYQNRLGMFNYDMIIGKLKNSLSPGNEQINRWSSASRNLKGSFNFSGASDPAIDAMITAILDAHSQVDFIAAVRALDRILISGSYYIPLYHLS”, the protein production is reported as “not failed”. In the case of “DITERKQAESALQESEARFQAFMNNSPSASWITDDHGRMLYLSQTYVRTFQLPFDKVEDVTGKTVFELYTPEVAQPFLDNIHRVAQTQQILETIEKAPRLDGTLGDFLVYKFPLPATT”, the protein production is reported as “failed”. For “DKITFKGDGDQSDPDGEPGDVVIVIQQKDHDIFKRDGDDLHMTKKLSLNEALCGYNFLIKHLDGHPLVLSSKQGDVIKPGVIRGVLGKGMPNKKYPELKGNLFVEFEVEFPKEHFLDDEKAYAVLK”, the protein production was “not failed”. In the case of “DLEPRERLHRILEQVLVFAGAMVAAAYTHSEDGDQLCLAESAGVPRSLYGLRDSYPLTGGTPAADVHRSGQPLWLTPEDLGRCADARRLPNGDFSLAVLPLGDGGCLAAVSERAGGFDADDRECLRLLAGSVA”, the protein production is reported as “failed”. In the case of “DLSREADQALQEIVRQTQETAQMCLLNGRKYTVALMKEGERHFRISSNIGENAPIPWTASGRLLLGHLSDGQIVDLIDERDFVLPDGERLPLETFLKQIRQATEDGFFSFDSVADTFTHCFAAPVRDEHGVCICTLCIVAPRADAQRNYQQYRRVLIDSANRLARRIN”, the protein production is reported as “failed”. In the case of “DNKELQKLTEDISETYFKKPFRHQALFNDRLKTTGGRYLLTSHNIELNRKYLIEHGREELIGIIKHELCHYHLHLEGKGYKHRDRDFRMLLQQVNAPRFCTPLKKKAENKKTYMYICTTCGQQYIKKRAMNPDRYRCGKCRGKIKRI”, the protein production is reported as “not failed”.
